Test results taken from patent WO2017055393A1 (dated 2017).

Target: T1, human Tim-3 (T cell Immunoglobulin- and Mucin domain-containing molecule 3) (human, UniProt Q8TDQ0 22-301)
T1 sequence (looked up): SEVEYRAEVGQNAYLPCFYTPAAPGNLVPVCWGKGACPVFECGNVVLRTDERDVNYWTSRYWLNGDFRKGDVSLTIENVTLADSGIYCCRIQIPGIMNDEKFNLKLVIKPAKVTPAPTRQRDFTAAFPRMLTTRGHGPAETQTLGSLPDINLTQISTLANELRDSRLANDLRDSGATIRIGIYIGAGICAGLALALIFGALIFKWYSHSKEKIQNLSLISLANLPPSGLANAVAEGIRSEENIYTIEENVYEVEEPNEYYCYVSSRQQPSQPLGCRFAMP
Test: cell-based or functional assay

B1: TIM3 TCB molecule: anti-Tim-3 / anti-CD3 T cell bispecific (TCB) molecule, "2+1 IgG CrossFab, inverted" with charge modifications (VH/VL exchange in CD3 … (bispecific antibody)
heavy 1: QVTLKESGPGILQPSQTLRLTCSFSGFSLSTSGMSVGWIRQPSGKGLEWLAHIWLNDDVFFNPALKSRLTISKDTSNNQVFLQIASVVTADTATYYCVRANGYLYALDYWGQGTSVTVSSASTKGPSVFPLAPSSKSTSGGTAALGCLVEDYFPEPVTVSWNSGALTSGVHTFPAVLQSSGLYSLSSVVTVPSSSLGTQTYICNVNHKPSNTKVDEKVEPKSCDKTHTCPPCPAPEAAGGPSVFLFPPKPKDTLMISRTPEVTCVVVDVSHEDPEVKFNWYVDGVEVHNAKTKPREEQYNSTYRVVSVLTVLHQDWLNGKEYKCKVSNKALGAPIEKTISKAKGQPREPQVCTLPPSRDELTKNQVSLSCAVKGFYPSDIAVEWESNGQPENNYKTTPPVLDSDGSFFLVSKLTVDKSRWQQGNVFSCSVMHEALHNHYTQKSLSLSP
heavy 2: not shown
light 1: EVQLLESGGGLVQPGGSLRLSCAASGFTFSTYAMNWVRQAPGKGLEWVSRIRSKYNNYATYYADSVKGRFTISRDDSKNTLYLQMNSLRAEDTAVYYCVRHGNFGNSYVSWFAYWGQGTLVTVSSASVAAPSVFIFPPSDEQLKSGTASVVCLLNNFYPREAKVQWKVDNALQSGNSQESVTEQDSKDSTYSLSSTLTLSKADYEKHKVYACEVTHQGLSSPVTKSFNRGEC
light 2: QIVLTQSPAIMSASPGQKVTITCSASSSVNYTQWYQQKLGSSPKLWIYDAFKLAPGVPARFSGSGTGTSYSLTISSMEAEDAASYFCHQWSSYPWTFGGGTKLEIKRTVAAPSVFIFPPSDRKLKSGTASVVCLLNNFYPREAKVQWKVDNALQSGNSQESVTEQDSKDSTYSLSSTLTLSKADYEKHKVYACEVTHQGLSSPVTKSFNRGEC
Cytotoxic activity TCB (LDH), IC50 pM, CMK cells (AML): 300 pM
Cytotoxic activity TCB (LDH), IC50 pM, EOL-1* cells (AML; 24h pre-treated with 10 ng/ml PMA): 300 pM
Cytotoxic activity TCB (LDH), IC50 pM, KG-1 cells (AML): 1000 pM
Cytotoxic activity TCB (LDH), IC50 pM, Karpas-299 cells (NHTCL): 500 pM
Cytotoxic activity TCB (LDH), IC50 pM, Kasumi-1 cells (AML): 3000 pM
Cytotoxic activity TCB (LDH), IC50 pM, Pfeiffer cells (NHBCL): 10 pM
Cytotoxic activity TCB (LDH), IC50 pM, RPMI-8226 cells (MM): 100 pM
Cytotoxic activity TCB (LDH), IC50 pM, SR cells (LCIBL): 100 pM
EC50 of tumor cell lysis, 24 h LDH release, CHO K1 cells stably expressing human TIM-3, thawed expanded T cells, E:T 1:1: 0.003 nM
EC50 of tumor cell lysis, 24 h LDH release, Pfeiffer cells, thawed expanded T cells, E:T 1:1: 0.06 nM
